Data as given in patent US6235873.

Test system: Stat3-C (A662C/N664C Stat3) (Mus musculus)
Assay: cell_activity
Conditions: approximately 10-fold, no induced tyrosine phosphorylation

Substance: 4x m67 luciferase reporter
- activity (fold over background): 10
